Here are results for 39 molecules from PMC10681739, “High-throughput data and modeling reveal insights into the mechanisms of cooperative DNA-binding by transcription factor proteins”.

The target in the data set is T1, ETS1 (Homo sapiens, UniProt P14921).
T1 sequence: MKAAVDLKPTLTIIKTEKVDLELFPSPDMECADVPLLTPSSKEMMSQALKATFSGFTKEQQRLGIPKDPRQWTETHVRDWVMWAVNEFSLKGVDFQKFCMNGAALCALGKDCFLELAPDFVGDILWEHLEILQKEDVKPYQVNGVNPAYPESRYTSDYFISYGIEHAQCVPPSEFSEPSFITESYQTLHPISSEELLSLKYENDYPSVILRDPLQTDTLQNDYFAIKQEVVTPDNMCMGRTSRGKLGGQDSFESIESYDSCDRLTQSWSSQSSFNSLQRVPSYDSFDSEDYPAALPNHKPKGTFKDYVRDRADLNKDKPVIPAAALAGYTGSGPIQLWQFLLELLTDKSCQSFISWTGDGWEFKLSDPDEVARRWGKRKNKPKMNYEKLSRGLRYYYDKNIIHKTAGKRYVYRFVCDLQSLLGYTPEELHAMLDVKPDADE
Description: gcPBM; 1 nM ETS1. The following applies: tags: N-terminal GST (pDEST15), kept (PMC6008103); label: surface-attached array probe.

B1: Table S2 C row 16 (dsDNA)
DNA 1: AAAAGCCCATGGGCACCCACAGCTTTGTCACAGTGC
DNA 2: GCACTGTGACAAAGCTGTGGGTGCCCATGGGCTTTT
As to B1, the binding signal was 288 PBM fluorescence, median of replicate spots.

B2: Table S2 B row 3361 (dsDNA)
DNA 1: GAACTACGTTTCCCGGCATGCACTGCAGGCCGCCGG
DNA 2: CCGGCGGCCTGCAGTGCATGCCGGGAAACGTAGTTC
On to B2, for which the binding signal was 787 PBM fluorescence, median of replicate spots.

B3: Table S2 B row 1799 (dsDNA)
DNA 1: AGCGGCCGAAGGAAGTGACGTTTGGGGCAGTAAGGC
DNA 2: GCCTTACTGCCCCAAACGTCACTTCCTTCGGCCGCT
As to B3, the binding signal was 1090 PBM fluorescence, median of replicate spots.

B4: Table S2 B row 935 (dsDNA)
DNA 1: CAGTGGCAGTAGCCGTTTGGCCCTTCCTGCCCTGGG
DNA 2: CCCAGGGCAGGAAGGGCCAAACGGCTACTGCCACTG
For the molecule B4, the binding signal is 882 PBM fluorescence, median of replicate spots.

B5: Table S2 B row 1484 (dsDNA)
DNA 1: CCCGGAAACTCAACTGCCCACTGCAGCGCCCGCCAT
DNA 2: ATGGCGGGCGCTGCAGTGGGCAGTTGAGTTTCCGGG
For the molecule B5, the binding signal is 830 PBM fluorescence, median of replicate spots.

B6: Table S2 C row 199 (dsDNA)
DNA 1: AGCTCAGGCACCAGCTGAGGTTTGGCATTTGCTGGC
DNA 2: GCCAGCAAATGCCAAACCTCAGCTGGTGCCTGAGCT
B6: the binding signal is 296 PBM fluorescence, median of replicate spots.

B7: Table S2 C row 98 (dsDNA)
DNA 1: AAAACCATCTTTAGGACCGCGGCCCCTTTAAGCGGC
DNA 2: GCCGCTTAAAGGGGCCGCGGTCCTAAAGATGGTTTT
Consider B7, for which the binding signal is 284 PBM fluorescence, median of replicate spots.

B8: Table S2 B row 3799 (dsDNA)
DNA 1: GCAAAGATACATCCTTCTCCCCAGAGACTAAGTTTC
DNA 2: GAAACTTAGTCTCTGGGGAGAAGGATGTATCTTTGC
Regarding B8, the binding signal was 1150 PBM fluorescence, median of replicate spots.

B9: Table S2 B row 2389 (dsDNA)
DNA 1: TCTGCACATCCGAGAAGCCTCCGTGCTTTGCTGCCA
DNA 2: TGGCAGCAAAGCACGGAGGCTTCTCGGATGTGCAGA
Consider B9, for which the binding signal is 803 PBM fluorescence, median of replicate spots.

B10: Table S2 B row 3926 (dsDNA)
DNA 1: GCTGTCCGTTTCCGAGATGTTAATGCGAGGTCTTGC
DNA 2: GCAAGACCTCGCATTAACATCTCGGAAACGGACAGC
Take B10: the binding signal was 1060 PBM fluorescence, median of replicate spots.

B11: Table S2 B row 411 (dsDNA)
DNA 1: CGCCCTCCGGAAGAGAGGGCGGACAGCGCCCGCGCC
DNA 2: GGCGCGGGCGCTGTCCGCCCTCTCTTCCGGAGGGCG
For the molecule B11, the binding signal is 1330 PBM fluorescence, median of replicate spots.

B12: Table S2 B row 3719 (dsDNA)
DNA 1: GACCTGGGCAGGAAGAGCGGCATTTGGGGCCCCCTG
DNA 2: CAGGGGGCCCCAAATGCCGCTCTTCCTGCCCAGGTC
B12: the binding signal was 1120 PBM fluorescence, median of replicate spots.

B13: Table S2 C row 51 (dsDNA)
DNA 1: CTTGGGAGTCCCTGCCGCGGTGACTCCCTGGGAGCT
DNA 2: AGCTCCCAGGGAGTCACCGCGGCAGGGACTCCCAAG
Turning to B13, the binding signal is 261 PBM fluorescence, median of replicate spots.

B14: Table S2 B row 3244 (dsDNA)
DNA 1: CCCGCTGTCACTTCCTGCTTCCCTCCCGCGCACGTG
DNA 2: CACGTGCGCGGGAGGGAAGCAGGAAGTGACAGCGGG
As to B14, the binding signal is 19700 PBM fluorescence, median of replicate spots.

B15: Table S2 C row 143 (dsDNA)
DNA 1: CGGCCCCGCTGAGGGGCCGCAAGGACGAGGACGCCT
DNA 2: AGGCGTCCTCGTCCTTGCGGCCCCTCAGCGGGGCCG
Take B15: the binding signal was 300 PBM fluorescence, median of replicate spots.

B16: Table S2 B row 1617 (dsDNA)
DNA 1: ACCACCCCCAGAGACAAACTCACATCCTCTCCCTAG
DNA 2: CTAGGGAGAGGATGTGAGTTTGTCTCTGGGGGTGGT
As to B16, the binding signal is 1010 PBM fluorescence, median of replicate spots.

B17: Table S2 C row 122 (dsDNA)
DNA 1: AGAGACAGTAGCAGCCGCGGTGACTGGCGGCCTCCT
DNA 2: AGGAGGCCGCCAGTCACCGCGGCTGCTACTGTCTCT
Take B17: the binding signal was 296 PBM fluorescence, median of replicate spots.

B18: Table S2 B row 1479 (dsDNA)
DNA 1: CAGATTCCCGGAAAGGGGGACATGTAGCCGCCAAAG
DNA 2: CTTTGGCGGCTACATGTCCCCCTTTCCGGGAATCTG
For B18, the binding signal was 1360 PBM fluorescence, median of replicate spots.

B19: Table S2 C row 62 (dsDNA)
DNA 1: GAGCATCTTGAGGTCTGTGGTTCAGCTACCAGCCCC
DNA 2: GGGGCTGGTAGCTGAACCACAGACCTCAAGATGCTC
With B19, the binding signal was 296 PBM fluorescence, median of replicate spots.

B20: Table S2 B row 234 (dsDNA)
DNA 1: GGGGGAATGTAGGAAGTATCATCGCCTACAAGAAAG
DNA 2: CTTTCTTGTAGGCGATGATACTTCCTACATTCCCCC
Regarding B20, the binding signal is 948 PBM fluorescence, median of replicate spots.

B21: Table S2 B row 1867 (dsDNA)
DNA 1: TCAGGAAGTGGTGTGACCAGCATGTGAACAGCGGCA
DNA 2: TGCCGCTGTTCACATGCTGGTCACACCACTTCCTGA
B21: the binding signal was 936 PBM fluorescence, median of replicate spots.

B22: Table S2 C row 25 (dsDNA)
DNA 1: CCAGCCCGGCCTCGGACCGCGGCACCCCTCCTGGCC
DNA 2: GGCCAGGAGGGGTGCCGCGGTCCGAGGCCGGGCTGG
On to B22, for which the binding signal was 312 PBM fluorescence, median of replicate spots.

B23: Table S2 B row 1424 (dsDNA)
DNA 1: TGCTTGTCCGGTGGCTGCTGCGCTGCCGAAACGAAT
DNA 2: ATTCGTTTCGGCAGCGCAGCAGCCACCGGACAAGCA
Turning to B23, the binding signal was 1420 PBM fluorescence, median of replicate spots.

B24: Table S2 B row 2446 (dsDNA)
DNA 1: GGAACGGAGGCGGAAGGGGCCCTTCGGCGACGACGT
DNA 2: ACGTCGTCGCCGAAGGGCCCCTTCCGCCTCCGTTCC
On to B24, for which the binding signal is 869 PBM fluorescence, median of replicate spots.

B25: Table S2 B row 2334 (dsDNA)
DNA 1: CCCCTCGCCCTTCCGCATTGCGTGTTACTTCGGTTG
DNA 2: CAACCGAAGTAACACGCAATGCGGAAGGGCGAGGGG
As to B25, the binding signal was 1460 PBM fluorescence, median of replicate spots.

B26: Table S2 B row 4028 (dsDNA)
DNA 1: GCCTGAAGGACTTCCGGGAACCGAAAAGCACGGTGT
DNA 2: ACACCGTGCTTTTCGGTTCCCGGAAGTCCTTCAGGC
As to B26, the binding signal is 19300 PBM fluorescence, median of replicate spots.

B27: Table S2 B row 3605 (dsDNA)
DNA 1: GGGCTTCCCGGGTACAAAAATGGCTGTCGCTAGCGA
DNA 2: TCGCTAGCGACAGCCATTTTTGTACCCGGGAAGCCC
As for B27, the binding signal is 1230 PBM fluorescence, median of replicate spots.

B28: Table S2 B row 2750 (dsDNA)
DNA 1: CTAGTCTGTTTCCTCATCTGCCGCCTGCACGCCCGC
DNA 2: GCGGGCGTGCAGGCGGCAGATGAGGAAACAGACTAG
Regarding B28, the binding signal is 985 PBM fluorescence, median of replicate spots.

B29: Table S2 B row 40 (dsDNA)
DNA 1: TTGCGTCATTTCCGAGAGACTTTCGCGCCGCTGTTT
DNA 2: AAACAGCGGCGCGAAAGTCTCTCGGAAATGACGCAA
Regarding B29, the binding signal is 1300 PBM fluorescence, median of replicate spots.

B30: Table S2 B row 3245 (dsDNA)
DNA 1: GCGCCCGGAAGGAAGGCTGGGGTAGGTTGTAGTTTC
DNA 2: GAAACTACAACCTACCCCAGCCTTCCTTCCGGGCGC
On to B30, for which the binding signal was 1030 PBM fluorescence, median of replicate spots.

B31: Table S2 B row 2956 (dsDNA)
DNA 1: CTCTGAAGGAAGTGATGTTAGACGGCTGTAGGTGGT
DNA 2: ACCACCTACAGCCGTCTAACATCACTTCCTTCAGAG
Consider B31, for which the binding signal was 910 PBM fluorescence, median of replicate spots.

B32: Table S2 B row 2753 (dsDNA)
DNA 1: AGTTGCTTCCTAATCCTGCTGAGCCATTAGCCCCAA
DNA 2: TTGGGGCTAATGGCTCAGCAGGATTAGGAAGCAACT
With B32, the binding signal is 1170 PBM fluorescence, median of replicate spots.

B33: Table S2 B row 3871 (dsDNA)
DNA 1: CCTGAGAGATCCGGCGCGCGTCTTCCACCAAAATGC
DNA 2: GCATTTTGGTGGAAGACGCGCGCCGGATCTCTCAGG
Turning to B33, the binding signal was 1260 PBM fluorescence, median of replicate spots.

B34: Table S2 C row 184 (dsDNA)
DNA 1: CCAGCTAAGCGAGGGGCCGCAGGGAGCGCGGCCTCG
DNA 2: CGAGGCCGCGCTCCCTGCGGCCCCTCGCTTAGCTGG
Regarding B34, the binding signal is 274 PBM fluorescence, median of replicate spots.

B35: Table S2 B row 1508 (dsDNA)
DNA 1: GCTCCCTTCCTGAGCCTCTGCTGGCCTCACCAGAGG
DNA 2: CCTCTGGTGAGGCCAGCAGAGGCTCAGGAAGGGAGC
As to B35, the binding signal was 849 PBM fluorescence, median of replicate spots.

B36: Table S2 B row 2231 (dsDNA)
DNA 1: GCGCCCTCCAGGAAACGCCGCGATTTACTGTCTGCC
DNA 2: GGCAGACAGTAAATCGCGGCGTTTCCTGGAGGGCGC
For the molecule B36, the binding signal is 1190 PBM fluorescence, median of replicate spots.

B37: Table S2 B row 2289 (dsDNA)
DNA 1: GAGGAAAGGAAGTCAAGGCCAGGGCCGAAGAGGCCA
DNA 2: TGGCCTCTTCGGCCCTGGCCTTGACTTCCTTTCCTC
On to B37, for which the binding signal was 1410 PBM fluorescence, median of replicate spots.

B38: Table S2 B row 1447 (dsDNA)
DNA 1: GCAGAAGGAAGTGTGGCTTGGCGCCGTGGCTCACAC
DNA 2: GTGTGAGCCACGGCGCCAAGCCACACTTCCTTCTGC
For B38, the binding signal was 817 PBM fluorescence, median of replicate spots.

B39: Table S2 B row 2233 (dsDNA)
DNA 1: GCGCCATTTCCGCTGCGCAAGGCACCTCAGGCCCTG
DNA 2: CAGGGCCTGAGGTGCCTTGCGCAGCGGAAATGGCGC
Take B39: the binding signal is 18700 PBM fluorescence, median of replicate spots.
